Assay results published in patent publication US20170037151A1.
Each block holds one substance with its values, some of them ahead of it.

Key:
Total SYK (human) = Total SYK (human) (UniProt P43405); assay: IHC pathology score, share of the 15 human DLBCL biopsies scored positive
SYK pY323 (human) = SYK pY323 (human) (UniProt P43405); assay: as above
[1] = molecular target: endogenous pSYK (activated SYK, pSYK Y525/526) in stimulated human lymphoma/leukemia cells, xenografts and biopsies (human) (UniProt P43405); assay: IHC, PHTX 95L xenograft untreated, Aperio positive pixel count
[2] = molecular target: endogenous pSYK (activated SYK, pSYK Y525/526) in stimulated human lymphoma/leukemia cells, xenografts and biopsies (human) (UniProt P43405); assay: IHC pathology score, share of the 15 human DLBCL biopsies scored positive
[3] = molecular target: endogenous pSYK (activated SYK, pSYK Y525/526) in stimulated human lymphoma/leukemia cells, xenografts and biopsies (human) (UniProt P43405); assay: IHC, PHTX95L xenograft, SYK inhibitor-treated mice, Aperio positive pixel count

% Positive (Total SYK (human)): 100%
Substance: Epitomics 1688-1 anti-hSYK (total SYK) antibody

% Positive (SYK pY323 (human)): 40%
Substance: Epitomics 2173 anti-SYK pY323 antibody

Percent Positive Pixel per total Pixel [1]: 8.21%
% Positive [2]: 40%
Percent Positive Pixel per total Pixel [3]: 0.56%
Substance: Epitomics 2175-1 anti-pSYK Y525/526 antibody
